Test results: patent US6875581 (GENOPIA BIOMEDICAL, dated 2005)
Where no end group is shown, it is not given here. [ ]: non-standard residue; d: D form. pS = N[C@@H](COP(=O)(O)O)C(=O)O

What was measured:
[1] = molecular target: T1, calcineurin-A-beta1/calcineurin-B (human, UniProt P16298 2-524; P63098 1-170); experiment: laser fluorescence correlation spectroscopy (FCS)
T1 construct: also called CNAb1-pQE30 product

[2] = molecular target: T2, calcineurin-A-beta2/calcineurin-B (human, UniProt P16298 2-524; P63098 1-170); experiment: laser fluorescence correlation spectroscopy (FCS)
T2 construct: also called CNAb2-pQE30 product

binding result [1]: binds
binding result [2]: binds
B1: RII-Fluophos (peptide)
peptide: DLDVPIPGRFDRRV[pS](fluorescein)VAAE
notes: Synthetic peptide; It was not converted by calcineurin; also called Fluophos-RII-peptide; fluorescent labeled RII-peptide
